From the supplement of paper PMC7125110
± gives the standard error. For some of these results: Fewer inactive variants are shown than the library holds.

B1: glmS ribozyme (parent)
chain: AUAAAAGCGCCAGAACUACAGAAAUGUAGUUGACGAGGAGGAGGUUUAUCGAAUUUUCGGCGGAUGCCUCCAAA

Assays:
Settings in all cases: with glucosamine-6-phosphate
glucosamine-6-phosphate [1] = variants of: B1; test: kcat; higher = faster cleavage; RNA array
In short: (§1)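 Glucosamine-6-phosphate in HEPES/KCl/Mg(OAc)2 buffer, at 40 μM to 10 mM, was flowed over barcoded ribozyme variants transcribed in situ by E. coli RNA polymerase on sequenced MiSeq chips. Tracking was through a hybridised Cy3 probe at 37 °C. kobs, kcat and KM came from exponential decay fits and weighted Michaelis–Menten fits of normalised per-tile medians.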

glucosamine-6-phosphate [2] = variants of: B1; test: KM; higher = weaker cofactor use; RNA array
In short: as §1

glucosamine-6-phosphate [3] = variants of: B1; test: self-cleavage kobs at 160 uM GlcN6P; higher = faster cleavage; RNA array
In short: as §1

glucosamine-6-phosphate [4] = variants of: B1; test: self-cleavage kobs at 640 uM GlcN6P; higher = faster cleavage; RNA array
In short: as §1

glucosamine-6-phosphate [5] = variants of: B1; test: self-cleavage kobs at 2500 uM GlcN6P; higher = faster cleavage; RNA array
In short: as §1

glucosamine-6-phosphate [6] = variants of: B1; test: self-cleavage kobs at 10000 uM GlcN6P; higher = faster cleavage; RNA array
In short: as §1

glucosamine-6-phosphate [7] = variants of: B1; test: self-cleavage kobs at 40 uM GlcN6P; higher = faster cleavage; RNA array
In short: as §1

Row | Variant | kcat (glucosamine-6-phosphate [1]) | KM (glucosamine-6-phosphate [2]) | self-cleavage kobs at 160 uM GlcN6P (glucosamine-6-phosphate [3]) | self-cleavage kobs at 640 uM GlcN6P (glucosamine-6-phosphate [4]) | self-cleavage kobs at 2500 uM GlcN6P (glucosamine-6-phosphate [5]) | self-cleavage kobs at 10000 uM GlcN6P (glucosamine-6-phosphate [6]) | self-cleavage kobs at 40 uM GlcN6P (glucosamine-6-phosphate [7])
1 | AUAAAAGCGCUAGAACUACAGAAAUGUAGUUGACGAGGAGGAGGUUUAUCGAAUUUUCGGCGGAUGACUCCAAA [C11U C67A] | 0.000277 ± 2.6e-05 s⁻¹ | 801 ± 180 µM | 4.36e-05 ± 1.8e-05 s⁻¹ | 0.000121 ± 1.3e-05 s⁻¹ | 0.000256 ± 4e-05 s⁻¹ | 0.000242 ± 3e-05 s⁻¹ | 
2 | AUAAAAGCGCCAGAACUACAGAAAUGUAGUUGACGAGGGGGAGGUUUAUCGAAUUUUCAGCGGAUGCCUCCAAA [A39G G59A] | 0.000106 ± 2.1e-05 s⁻¹ |  |  |  | 7.4e-05 ± 1.8e-05 s⁻¹ | 8.4e-05 ± 1.1e-05 s⁻¹ | 
3 | AUAAAAGCGCCAGAACUACAGAAAUGUAAUUGACGAGGAGGAGGUUUUUCGAAUUUUCGGCGGAUGCCUCCAAA [G29A A48U] | 0.000327 ± 8.3e-05 s⁻¹ |  |  |  |  | 2.73e-05 ± 1.1e-05 s⁻¹ | 
4 | AUAAAAGCGCCAGAACUACAGAAAUGUAGUUGACGAGGAGGAGGGUUAUCGAAUUGUCGGCGGAUGCCUCCAAA [U45G U56G] | 0.00528 ± 0.00075 s⁻¹ | 2490 ± 520 µM | 0.000245 ± 6.5e-05 s⁻¹ | 0.0011 ± 0.00017 s⁻¹ | 0.0033 ± 0.00052 s⁻¹ | 0.00403 ± 0.00047 s⁻¹ | 8.78e-05 ± 1.3e-05 s⁻¹
5 | AUAAAAGCGCCAGGACUACAGAAAUGUAGUUGACGAGGAGGAGGUUUAUCGAAUUUUCGGAGGAUGCCUCCAAA [A14G C61A] | 1.1e-05 ± 4.8e-06 s⁻¹ |  |  |  |  |  | 
6 | AUAAAAGCGCCAGACCUACAGAAAUGUAGUUGACGAGGAGGAGGUUUAUCGAAUUUUCGGCGGAUGGCUCCAAA [A15C C67G] | 0.0001315 ± 6.7e-07 s⁻¹ | 1530 ± 22 µM |  | 3.9e-05 ± 1.4e-05 s⁻¹ | 8.12e-05 ± 1.4e-05 s⁻¹ | 0.000114 ± 1.8e-05 s⁻¹ | 
7 | AUAAACGCGCCAGAACUACAGAAAUGUAGUUGACGAGGAGGAGGUUUAUCGAAUUUUCAGCGGAUGCCUCCAAA [A6C G59A] | < 1e-05 s⁻¹ |  |  |  |  | < 1e-05 s⁻¹ | < 1e-05 s⁻¹
8 | AUAAAAGCGCCAGAACUACAGAAAUGUAGUAGACGAGGAGGAGGUUUAUCGACUUUUCGGCGGAUGCCUCCAAA [U31A A53C] | 0.00557 ± 0.0019 s⁻¹ | 5300 ± 2300 µM | 0.000229 ± 3.4e-05 s⁻¹ | 0.000507 ± 6.9e-05 s⁻¹ | 0.00162 ± 0.00025 s⁻¹ | 0.00393 ± 0.00053 s⁻¹ | 4.92e-05 ± 9.4e-06 s⁻¹
9 | AUAAAAGCGCCAAACCUACAGAAAUGUAGUUGACGAGGAGGAGGUUUAUCGAAUUUUCGGCGGAUGCCUCCAAA [G13A A15C] | 0.000242 ± 3.2e-05 s⁻¹ | 2680 ± 760 µM |  | 5.24e-05 ± 1.1e-05 s⁻¹ | 9.3e-05 ± 2.5e-05 s⁻¹ | 0.000198 ± 2.6e-05 s⁻¹ | 
10 | AUAAAAGCGCCAGAACUACAGAAAUGUAGUUGACGAGGAGCGGGUUUAUCGAAUUUUCGGCGGAUGCCUCCAAA [G41C A42G] | 0.00017 ± 1e-05 s⁻¹ | 1210 ± 190 µM |  | 6.25e-05 ± 1e-05 s⁻¹ | 0.000107 ± 1.5e-05 s⁻¹ | 0.000158 ± 1.9e-05 s⁻¹ | 
11 | AUAAAAGCGCCAGAACUACAGAAAUGUAGCUGACGAGGAGGAGGUUUAUCGAAUUUUCGGCGGAUUCCUCCAAA [U30C G66U] | < 1e-05 s⁻¹ |  | < 1e-05 s⁻¹ |  |  |  | 
12 | AUAAAAGCGCCAGAACUACAGAAAUGUAGUUGACGAGGAGGAGGUUUAUCGAAUAUUCGGCGGAUGCGUCCAAA [U55A C68G] | 8.49e-05 ± 3.5e-06 s⁻¹ | 51.2 ± 14 µM | 6.64e-05 ± 1e-05 s⁻¹ | 8.75e-05 ± 1.2e-05 s⁻¹ | 8.44e-05 ± 1.1e-05 s⁻¹ | 8.04e-05 ± 7.4e-06 s⁻¹ | 3.36e-05 ± 1e-05 s⁻¹
13 | AUAAAAGCGCCAGAACUACAGAAAUGUAGUUGACGAGGAGGAGGAUUAUCGGAUUUUCGGCGGAUGCCUCCAAA [U45A A52G] | 0.00326 ± 0.00073 s⁻¹ | 2900 ± 900 µM | 0.000155 ± 2.1e-05 s⁻¹ | 0.000699 ± 8.5e-05 s⁻¹ | 0.00135 ± 0.00014 s⁻¹ | 0.00293 ± 0.00044 s⁻¹ | 5.17e-05 ± 1e-05 s⁻¹
14 | AUAAAAGCGCCAGAACUACAGAAAUGUAGUUGACGAGGAGGAGGUUUAUCGAAUCUUCGGCGGAUGCCUGCAAA [U55C C70G] | < 1e-05 s⁻¹ |  |  |  |  |  | < 1e-05 s⁻¹
15 | AUAAAAGCGCCAGUACUACAGAAAUGUAGUGGACGAGGCGGAGGUUUAUCGAAUUUUCGGCGGAUGCCUCCAAA [A14U U31G A39C] | 0.000999 ± 0.00027 s⁻¹ | 4360 ± 1700 µM | 5.41e-05 ± 2e-05 s⁻¹ | 0.000117 ± 2.6e-05 s⁻¹ | 0.000373 ± 9.9e-05 s⁻¹ | 0.000701 ± 0.00017 s⁻¹ | 
16 | AUAAAAGCGCUAGAACUACAGAAAUGUAGUUGAUGAGGAGGAGGUUUAUCGAAUUUUCGGCGUAUGCCUGCAAA [C11U C34U G63U C70G] | 2.22e-05 ± 4.3e-06 s⁻¹ |  |  |  |  |  | 
17 | AUAAAAGCGCCAGAACUACAGAAAUGUAGUUGACGAGGAGGAGGUUUAUCGAAUUUUCAGCGGAUACCUCCAAA [G59A G66A] | 0.000247 ± 1.9e-05 s⁻¹ |  |  |  |  |  | 
18 | AUAAAAGCGCCAGAACUACAGAAAUGUAGUAGUCGAGGAGGAGGUUUAUCGAAUUUUCGGCGGAUGCCUCCAAA [U31A A33U] | 2.01e-05 ± 3.8e-06 s⁻¹ |  |  |  |  |  | < 1e-05 s⁻¹
19 | AUAAAAGCGCCAGAACUACAGAAAUGUAGUUGACGAGGACGAGGUUUUUCGAAUUUUCGGCGGAUGCCUCCAAA [G40C A48U] | 0.000238 ± 7.3e-05 s⁻¹ |  | < 1e-05 s⁻¹ |  |  | 5.01e-05 ± 8.4e-06 s⁻¹ | < 1e-05 s⁻¹
